In paper PMC6209228, “Crystal structure and functional characterization of a cold-active acetyl xylan esterase (PbAcE) from psychrophilic soil microbe Paenibacillus sp” (PLoS ONE, 2018):
One block for each molecule: values may come before it.

Assays:
PbAcE = molecular target: T1, PbAcE (Paenibacillus sp. R4, UniProt A0A452CSP2); test: p-nitrophenol release at […] nm, initial rates, double reciprocal plot; type: biochemical; settings: 20 mM Tris-HCl, 150 mM NaCl, pH 7.4; free enzyme
T1 construct: gene cloned in pET-28a (NdeI/XhoI), N-terminal His6 tag cut by thrombin, E. coli BL21(DE3); ~36 kDa monomer, hexamer 234 kDa; 1896 residues modelled in six chains; primers encode N-terminus MPNVDMP and C-terminus IEAYL; catalytic triad Ser185, Asp274, His303

[1] = molecular target: cold-active acetyl xylan esterase (PbAcE) from Paenibacillus sp. R4 (Paenibacillus sp. R4); test: AUC; sedimentation velocity, 20°C, 0.5 mg/ml PbAcE, 20 mM Tris-HCl pH 8.0, 150 mM NaCl, 45,000 rpm, SEDFIT
purified protein = substrate: CCCC(=O)Oc1ccc([N+](=O)[O-])cc1; test: purified protein; type: biochemical, Paenibacillus sp. R4; settings: 20 mM Tris-HCl, 150 mM NaCl, pH 7.4, free enzyme

Molecule: CC(=O)Oc1ccc([N+](=O)[O-])cc1 [pNP-C2, p-nitrophenyl acetate]
Km (PbAcE): initial kinetic studies were performed for pNP-C2 and pNP-C4

stoichiometry N [1]: 6
Molecule: cold-active acetyl xylan esterase (PbAcE) from Paenibacillus sp. R4 (enzyme)

B1: PbAcE (Paenibacillus sp. R4) (protein)
chain: MPNVDMPLSQLQDYKPELTNETDFDLFWDNAKALSNQKPLHAQVNLVQDYPLKSISIYDVVYDGADGTPIHGWYVTPKGEHQPGSLPVLVKYHGYSGNRGYPNELLQWASMGMAALAIDVRGQGGVTPDRAEYPQGGIPGWMTLGILDPASYYYKQVYLDCIRALDFVCSREEVDASRIAVYGGSQGGGLALAAAGLDSRPKLALPVFPFLCHFRRSVEIHASGPYVEIKNWFRRYDPEHRQEEQVYRTLSYFDGMNMASRIKARTLMAITLQDITCPPSTCFAAYNHLAGPKEVRLYHDYGHEGLPFHEEAMMRFIEAYL
notes: gene cloned in pET-28a (NdeI/XhoI), N-terminal His6 tag cut by thrombin, E. coli BL21(DE3); ~36 kDa monomer, hexamer 234 kDa; 1896 residues modelled in six chains; primers encode N-terminus MPNVDMP and C-terminus IEAYL; catalytic triad Ser185, Asp274, His303
Km (purified protein): 1230 ± 330 µM
kcat (purified protein): 0.19 ± 0.02 s⁻¹
